Experimental data taken from patent US20210238298A1.

Molecular target: CD86 mutant 1040 conjugated to an anti-CD40 antibody as part of a bispecific molecule (human)
Assay: inhibition ELISA: CD86 mutant 1040 on an anti-CD40 antibody pre-incubated with the soluble CTLA-4 in a dilution series, mixture added to coated human CTLA-4 (the competitor)

CD86 mutant 1040 conjugated to an anti-CD40 antibody as part of a bispecific molecule (human), sequence (chain, as listed by the source limits assumed): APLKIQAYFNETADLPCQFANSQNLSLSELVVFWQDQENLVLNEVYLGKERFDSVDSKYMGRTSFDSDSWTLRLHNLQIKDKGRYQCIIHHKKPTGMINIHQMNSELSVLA

IC50 (read off the curve) [µg/mL] | Substance
1 | CTLA4-Fc (Fitzgerald, #30R-CD152) (from UniProt P16410 38-152) (Fc fusion)
0.8 | soluble murine CTLA-4 (R&D systems) (from UniProt P09793 36-162) (receptor)
